# Assay results reported in IntAct's records for PubMed 29892012.
# B1: Mothers against decapentaplegic homolog 4 (Homo sapiens), Q13485 (parent)
# chain: MDNMSITNTPTSNDACLSIVHSLMCHRQGGESETFAKRAIESLVKKLKEKKDELDSLITAITTNGAHPSKCVTIQRTLDGRLQVAGRKGFPHVIYARLWRWPDLHKNELKHVKYCQYAFDLKCDSVCVNPYHYERVVSPGIDLSGLTLQSNAPSSMMVKDEYVHDFEGQPSLSTEGHSIQTIQHPPSNRASTETYSTPALLAPSESNATSTANFPNIPVASTSQPASILGGSHSEGLLQIASGPQPGQQQNGFTGQPATYHHNSTTTWTGSRTAPYTPNLPHHQNGHLQHHPPMPPHPGHYWPVHNELAFQPPISNHPAPEYWCSIAYFEMDVQVGETFKVPSSCPIVTVDGYVDPSGGDRFCLGQLSNVHRTEAIERARLHIGKGVQLECKGEGDVWVRCLSDHAVFVQSYYLDREAGRAPGDAVHKIYPSAYIKVFDLRQCHRQMQQQAATAQAAAAAQAAAVAGNIPGPGSVGGIAPAISLSAAAGIGVDDLRRLCILRMSFVKGWGPDYPRQSIKETPCWIEIHLHRALQLLDEVLHTMPIADPQPLD
# B2: F-box/LRR-repeat protein 12 (Homo sapiens), Q9NXK8 (parent)
# chain: MATLVELPDSVLLEIFSYLPVRDRIRISRVCHRWKRLVDDRWLWRHVDLTLYTMRPKVMWHLLRRYMASRLHSLRMGGYLFSGSQAPQLSPALLRALGQKCPNLKRLCLHVADLSMVPITSLPSTLRTLELHSCEISMAWLHKQQDPTVLPLLECIVLDRVPAFRDEHLQGLTRFRALRSLVLGGTYRVTETGLDAGLQELSYLQRLEVLGCTLSADSTLLAISRHLRDVRKIRLTVRGLSAPGLAVLEGMPALESLCLQGPLVTPEMPSPTEILSSCLTMPKLRVLELQGLGWEGQEAEKILCKGLPHCMVIVRACPKESMDWWM
# B3: Structure-specific endonuclease subunit SLX4 (Homo sapiens), Q8IY92 (parent)
# chain: MKLSVNEAQLGFYLGSLSHLSACPGIDPRSSEDQPESLKTGQMMDESDEDFKELCASFFQRVKKHGIKEVSGERKTQKAASNGTQIRSKLKRTKQTATKTKTLQGPAEKKPPSGSQAPRTKKQRVTKWQASEPAHSVNGEGGVLASAPDPPVLRETAQNTQTGNQQEPSPNLSREKTRENVPNSDSQPPPSCLTTAVPSPSKPRTAQLVLQRMQQFKRADPERLRHASEECSLEAAREENVPKDPQEEMMAGNVYGLGPPAPESDAAVALTLQQEFARVGASAHDDSLEEKGLFFCQICQKNLSAMNVTRREQHVNRCLDEAEKTLRPSVPQIPECPICGKPFLTLKSRTSHLKQCAVKMEVGPQLLLQAVRLQTAQPEGSSSPPMFSFSDHSRGLKRRGPTSKKEPRKRRKVDEAPSEDLLVAMALSRSEMEPGAAVPALRLESAFSERIRPEAENKSRKKKPPVSPPLLLVQDSETTGRQIEDRVALLLSEEVELSSTPPLPASRILKEGWERAGQCPPPPERKQSFLWEGSALTGAWAMEDFYTARLVPPLVPQRPAQGLMQEPVPPLVPPEHSELSERRSPALHGTPTAGCGSRGPSPSASQREHQALQDLVDLAREGLSASPWPGSGGLAGSEGTAGLDVVPGGLPLTGFVVPSQDKHPDRGGRTLLSLGLLVADFGAMVNNPHLSDVQFQTDSGEVLYAHKFVLYARCPLLIQYVNNEGFSAVEDGVLTQRVLLGDVSTEAARTFLHYLYTADTGLPPGLSSELSSLAHRFGVSELVHLCEQVPIATDSEGKPWEEKEAENCESRAENFQELLRSMWADEEEEAETLLKSKDHEEDQENVNEAEMEEIYEFAATQRKLLQEERAAGAGEDADWLEGGSPVSGQLLAGVQVQKQWDKVEEMEPLEPGRDEAATTWEKMGQCALPPPQGQHSGARGAEAPEQEAPEEALGHSSCSSPSRDCQAERKEGSLPHSDDAGDYEQLFSSTQGEISEPSQITSEPEEQSGAVRERGLEVSHRLAPWQASPPHPCRFLLGPPQGGSPRGSHHTSGSSLSTPRSRGGTSQVGSPTLLSPAVPSKQKRDRSILTLSKEPGHQKGKERRSVLECRNKGVLMFPEKSPSIDLTQSNPDHSSSRSQKSSSKLNEEDEVILLLDSDEELELEQTKMKSISSDPLEEKKALEISPRSCELFSIIDVDADQEPSQSPPRSEAVLQQEDEGALPENRGSLGRRGAPWLFCDRESSPSEASTTDTSWLVPATPLASRSRDCSSQTQISSLRSGLAVQAVTQHTPRASVGNREGNEVAQKFSVIRPQTPPPQTPSSCLTPVSPGTSDGRRQGHRSPSRPHPGGHPHSSPLAPHPISGDRAHFSRRFLKHSPPGPSFLNQTPAGEVVEVGDSDDEQEVASHQANRSPPLDSDPPIPIDDCCWHMEPLSPIPIDHWNLERTGPLSTSSPSRRMNEAADSRDCRSPGLLDTTPIRGSCTTQRKLQEKSSGAGSLGNSRPSFLNSALWDVWDGEEQRPPETPPPAQMPSAGGAQKPEGLETPKGANRKKNLPPKVPITPMPQYSIMETPVLKKELDRFGVRPLPKRQMVLKLKEIFQYTHQTLDSDSEDESQSSQPLLQAPHCQTLASQTYKPSRAGVHAQQEATTGPGAHRPKGPAKTKGPRHQRKHHESITPPSRSPTKEAPPGLNDDAQIPASQESVATSVDGSDSSLSSQSSSSCEFGAAFESAGEEEGEGEVSASQAAVQAADTDEALRCYIRSKPALYQKVLLYQPFELRELQAELRQNGLRVSSRRLLDFLDTHCITFTTAATRREKLQGRRRQPRGKKKVERN
# partner: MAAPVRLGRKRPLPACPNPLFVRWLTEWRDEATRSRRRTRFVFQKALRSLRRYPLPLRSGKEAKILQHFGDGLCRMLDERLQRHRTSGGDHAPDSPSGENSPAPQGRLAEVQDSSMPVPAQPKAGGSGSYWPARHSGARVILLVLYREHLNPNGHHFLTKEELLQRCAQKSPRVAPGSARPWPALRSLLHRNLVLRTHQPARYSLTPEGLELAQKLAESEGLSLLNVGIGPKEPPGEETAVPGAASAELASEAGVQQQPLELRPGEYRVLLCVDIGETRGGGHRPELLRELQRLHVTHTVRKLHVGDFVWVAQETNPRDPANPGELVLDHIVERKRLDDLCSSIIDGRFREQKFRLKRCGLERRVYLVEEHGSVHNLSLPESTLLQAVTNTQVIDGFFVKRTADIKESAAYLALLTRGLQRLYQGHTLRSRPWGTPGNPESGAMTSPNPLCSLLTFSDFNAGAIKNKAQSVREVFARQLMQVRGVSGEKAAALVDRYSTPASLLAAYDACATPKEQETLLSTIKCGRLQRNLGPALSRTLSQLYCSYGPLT
# B4: Ribosome assembly protein METTL17, mitochondrial (Homo sapiens), Q9H7H0 (parent)
# chain: MAAALKCLLTLGRWCPGLGVAPQARALAALVPGVTQVDNKSGFLQKRPHRQHPGILKLPHVRLPQALANGAQLLLLGSAGPTMENQVQTLTSYLWSRHLPVEPEELQRRARHLEKKFLENPDLSQTEEKLRGAVLHALRKTTYHWQELSYTEGLSLVYMAARLDGGFAAVSRAFHEIRARNPAFQPQTLMDFGSGTGSVTWAAHSIWGQSLREYMCVDRSAAMLVLAEKLLKGGSESGEPYIPGVFFRQFLPVSPKVQFDVVVSAFSLSELPSKADRTEVVQTLWRKTGHFLVLVENGTKAGHSLLMDARDLVLKGKEKSPLDPRPGFVFAPCPHELPCPQLTNLACSFSQAYHPIPFSWNKKPKEEKFSMVILARGSPEEAHRWPRITQPVLKRPRHVHCHLCCPDGHMQHAVLTARRHGRDLYRCARVSSWGDLLPVLTPSAFPPSTAQDPSES
# partner: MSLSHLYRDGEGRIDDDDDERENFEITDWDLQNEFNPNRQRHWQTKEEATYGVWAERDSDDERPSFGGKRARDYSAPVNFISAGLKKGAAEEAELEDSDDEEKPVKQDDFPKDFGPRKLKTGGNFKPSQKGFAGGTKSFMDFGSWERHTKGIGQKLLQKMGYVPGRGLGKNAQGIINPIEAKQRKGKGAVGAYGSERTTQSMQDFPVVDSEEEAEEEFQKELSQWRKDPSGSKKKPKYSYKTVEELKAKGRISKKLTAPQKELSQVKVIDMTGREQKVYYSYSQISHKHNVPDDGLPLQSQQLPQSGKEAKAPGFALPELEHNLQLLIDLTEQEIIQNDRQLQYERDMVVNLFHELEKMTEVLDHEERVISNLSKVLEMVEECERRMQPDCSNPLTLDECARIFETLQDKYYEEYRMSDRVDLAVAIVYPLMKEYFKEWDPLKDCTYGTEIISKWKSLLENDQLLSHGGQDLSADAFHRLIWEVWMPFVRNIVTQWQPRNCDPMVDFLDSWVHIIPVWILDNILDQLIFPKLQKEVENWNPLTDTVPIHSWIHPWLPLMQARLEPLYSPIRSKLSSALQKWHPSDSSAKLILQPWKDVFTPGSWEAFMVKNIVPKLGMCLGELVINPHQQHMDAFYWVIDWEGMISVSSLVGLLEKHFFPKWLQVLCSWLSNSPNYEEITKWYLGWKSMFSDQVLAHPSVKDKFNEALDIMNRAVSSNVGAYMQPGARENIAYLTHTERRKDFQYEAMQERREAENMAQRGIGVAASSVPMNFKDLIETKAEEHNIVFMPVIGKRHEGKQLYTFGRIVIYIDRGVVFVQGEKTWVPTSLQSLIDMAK
# Variants of: B1
# Conditions: with ews_human EWSR1, Q01844
# ews_human EWSR1, Q01844, sequence (Q01844 whole entry): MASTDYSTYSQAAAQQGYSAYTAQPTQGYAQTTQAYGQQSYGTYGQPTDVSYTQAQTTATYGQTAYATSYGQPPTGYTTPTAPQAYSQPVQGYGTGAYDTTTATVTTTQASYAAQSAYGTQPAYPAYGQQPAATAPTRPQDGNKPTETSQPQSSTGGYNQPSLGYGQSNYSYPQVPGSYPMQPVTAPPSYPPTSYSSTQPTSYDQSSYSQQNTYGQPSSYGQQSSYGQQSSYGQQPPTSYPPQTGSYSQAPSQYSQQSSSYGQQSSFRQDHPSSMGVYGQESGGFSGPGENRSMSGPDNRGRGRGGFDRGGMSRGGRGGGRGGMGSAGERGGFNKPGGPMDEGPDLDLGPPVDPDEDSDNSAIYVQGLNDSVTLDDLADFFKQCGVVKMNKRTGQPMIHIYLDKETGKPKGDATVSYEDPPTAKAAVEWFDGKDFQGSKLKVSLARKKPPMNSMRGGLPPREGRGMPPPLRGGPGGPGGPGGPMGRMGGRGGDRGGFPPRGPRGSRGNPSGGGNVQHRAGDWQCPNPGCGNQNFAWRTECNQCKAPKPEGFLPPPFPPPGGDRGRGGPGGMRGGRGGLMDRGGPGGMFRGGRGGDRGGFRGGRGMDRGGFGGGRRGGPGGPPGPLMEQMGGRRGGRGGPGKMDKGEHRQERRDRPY
row,Variant,effect of a mutation on the interaction
1,I500V,disrupting interaction strength

# Variants of: B1
# Conditions: with smad3_human SMAD3, P84022
# smad3_human SMAD3, P84022, sequence (P84022 whole entry, looked up): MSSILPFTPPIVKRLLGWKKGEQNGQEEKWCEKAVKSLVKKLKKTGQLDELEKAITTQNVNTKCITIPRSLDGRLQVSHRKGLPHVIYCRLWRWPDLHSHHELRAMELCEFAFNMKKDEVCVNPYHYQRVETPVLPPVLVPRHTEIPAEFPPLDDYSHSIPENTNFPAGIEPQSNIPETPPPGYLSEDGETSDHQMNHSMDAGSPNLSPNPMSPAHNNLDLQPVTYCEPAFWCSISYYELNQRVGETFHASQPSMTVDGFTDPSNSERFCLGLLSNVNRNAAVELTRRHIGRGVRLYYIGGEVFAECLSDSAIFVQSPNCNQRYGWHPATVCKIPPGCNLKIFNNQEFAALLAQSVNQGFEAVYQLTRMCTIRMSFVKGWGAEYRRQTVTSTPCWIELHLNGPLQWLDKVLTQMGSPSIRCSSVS
row,Variant,effect of a mutation on the interaction
1,I500V,with no effect

# Variants of: B2
# Conditions: with dock8_human DOCK8, Q8NF50
# dock8_human DOCK8, Q8NF50, sequence (Q8NF50 whole entry): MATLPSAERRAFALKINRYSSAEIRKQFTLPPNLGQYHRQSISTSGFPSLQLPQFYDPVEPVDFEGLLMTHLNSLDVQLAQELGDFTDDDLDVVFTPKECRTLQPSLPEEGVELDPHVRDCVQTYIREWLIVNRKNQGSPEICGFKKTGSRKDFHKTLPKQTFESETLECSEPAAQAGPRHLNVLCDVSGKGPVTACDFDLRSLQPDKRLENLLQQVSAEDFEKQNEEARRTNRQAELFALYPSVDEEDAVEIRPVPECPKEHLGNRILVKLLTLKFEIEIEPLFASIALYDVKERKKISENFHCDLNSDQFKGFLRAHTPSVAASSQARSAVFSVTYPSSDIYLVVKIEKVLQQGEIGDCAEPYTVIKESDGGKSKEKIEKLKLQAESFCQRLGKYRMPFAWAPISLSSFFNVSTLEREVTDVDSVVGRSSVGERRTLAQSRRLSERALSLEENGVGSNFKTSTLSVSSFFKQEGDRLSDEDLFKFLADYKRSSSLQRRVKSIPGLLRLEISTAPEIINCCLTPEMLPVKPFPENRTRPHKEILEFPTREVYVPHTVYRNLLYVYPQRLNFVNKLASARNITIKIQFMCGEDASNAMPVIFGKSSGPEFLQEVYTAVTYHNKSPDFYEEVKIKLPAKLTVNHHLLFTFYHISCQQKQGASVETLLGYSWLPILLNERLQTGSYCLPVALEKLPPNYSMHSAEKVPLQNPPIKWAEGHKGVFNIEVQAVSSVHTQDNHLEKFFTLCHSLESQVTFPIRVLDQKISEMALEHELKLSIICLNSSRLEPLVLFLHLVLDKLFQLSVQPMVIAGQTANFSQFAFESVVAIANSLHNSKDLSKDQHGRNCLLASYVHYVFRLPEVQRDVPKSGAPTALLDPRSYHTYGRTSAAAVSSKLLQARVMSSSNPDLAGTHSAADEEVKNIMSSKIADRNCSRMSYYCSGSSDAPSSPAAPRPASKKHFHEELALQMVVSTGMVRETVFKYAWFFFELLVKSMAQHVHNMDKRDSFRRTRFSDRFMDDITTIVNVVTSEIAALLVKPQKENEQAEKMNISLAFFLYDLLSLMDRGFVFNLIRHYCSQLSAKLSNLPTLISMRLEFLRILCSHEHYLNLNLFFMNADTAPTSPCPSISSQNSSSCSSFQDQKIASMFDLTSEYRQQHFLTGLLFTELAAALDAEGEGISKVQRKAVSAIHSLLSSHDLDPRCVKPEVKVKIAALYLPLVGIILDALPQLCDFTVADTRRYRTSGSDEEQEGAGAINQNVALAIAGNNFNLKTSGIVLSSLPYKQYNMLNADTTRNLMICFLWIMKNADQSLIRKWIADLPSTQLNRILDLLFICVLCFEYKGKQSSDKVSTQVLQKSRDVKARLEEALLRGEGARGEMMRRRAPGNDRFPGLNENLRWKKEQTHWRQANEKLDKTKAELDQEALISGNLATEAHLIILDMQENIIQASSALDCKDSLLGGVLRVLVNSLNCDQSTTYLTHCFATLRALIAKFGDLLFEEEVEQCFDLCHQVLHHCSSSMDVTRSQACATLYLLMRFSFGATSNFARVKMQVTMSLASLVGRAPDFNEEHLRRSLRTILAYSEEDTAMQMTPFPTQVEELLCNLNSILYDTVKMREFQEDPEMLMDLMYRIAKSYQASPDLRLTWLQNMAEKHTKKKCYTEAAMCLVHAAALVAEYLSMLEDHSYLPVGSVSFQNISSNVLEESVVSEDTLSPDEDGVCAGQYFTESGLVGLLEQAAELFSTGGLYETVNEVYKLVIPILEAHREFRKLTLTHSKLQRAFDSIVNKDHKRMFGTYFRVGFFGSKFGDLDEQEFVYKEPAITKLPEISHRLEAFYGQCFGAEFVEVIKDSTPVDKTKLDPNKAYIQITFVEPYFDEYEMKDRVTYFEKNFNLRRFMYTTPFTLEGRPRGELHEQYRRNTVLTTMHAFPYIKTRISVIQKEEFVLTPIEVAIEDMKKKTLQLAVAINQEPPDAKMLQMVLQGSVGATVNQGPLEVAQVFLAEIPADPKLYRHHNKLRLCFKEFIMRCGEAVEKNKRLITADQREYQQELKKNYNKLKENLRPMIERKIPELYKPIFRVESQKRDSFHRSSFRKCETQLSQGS
row,Variant,effect of a mutation on the interaction
1,I313V,with no effect

# Variants of: B3
# Conditions: with mus81_human MUS81, Q96NY9
row,Variant,effect of a mutation on the interaction
1,F708L,disrupting interaction strength

# Variants of: B3
# Conditions: with mus81_human MUS81, Q96NY9
# Remark: another data set of the same source
row,Variant,effect of a mutation on the interaction
1,V886L,with no effect

# Variants of: B4
# Conditions: with tfp11_human TFIP11, Q9UBB9
row,Variant,effect of a mutation on the interaction
1,R212H,disrupting interaction strength
